Experimental data taken from PMC11079029, “Intramolecular autoinhibition regulates the selectivity of PRPF40A tandem WW domains for proline-rich motifs” (Nature Communications, 2024).
Residue numbers refer to the chain shown, from its start. Several values for one entry are separate records, joined by “and”; a condition that tells them apart may be missing. Identical values can stand only once. One block for each binder: values may come before it.

Columns and labels:
Conditions in all cases: both partners purified
[1] = biological target: T1, GB1-polyproline peptide P22; assay: ITC; MicroCal PEAQ-ITC, 25 °C, 20 mM sodium phosphate pH 6.5, 100 mM NaCl; GB1-polyproline peptides in the cell, WW12 in the syringe (N sites >1: more than one WW tandem on one peptide); one-site model; apparent
T1 construct: common N-terminal residues after the TEV site (TEVsite-GAMSGS-peptide-SGSN); 22 consecutive prolines; common C-terminal residues; pET24 vector with 6xHis, GB1 and TEV site as N-terminal cassette, not cleaved; also called polyproline length 22; source: E. coli BL21(DE3), purified (Ni-NTA, SEC); not shown: GB1, N-terminal, kept
T1 chain: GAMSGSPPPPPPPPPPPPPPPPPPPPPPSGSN

[2] = biological target: T2, GB1-polyproline peptide P29; assay: as above
T2 construct: common N-terminal residues after the TEV site (TEVsite-GAMSGS-peptide-SGSN); 29 consecutive prolines; common C-terminal residues; pET24 vector with 6xHis, GB1 and TEV site as N-terminal cassette, not cleaved; also called polyproline length 29; source: E. coli BL21(DE3), purified (Ni-NTA, SEC); not shown: GB1, N-terminal, kept
T2 chain: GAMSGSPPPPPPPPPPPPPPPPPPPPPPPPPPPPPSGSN

[3] = biological target: T3, GB1-polyproline peptide P25; assay: as above
T3 construct: common N-terminal residues after the TEV site (TEVsite-GAMSGS-peptide-SGSN); 25 consecutive prolines; common C-terminal residues; pET24 vector with 6xHis, GB1 and TEV site as N-terminal cassette, not cleaved; also called polyproline length 25; source: E. coli BL21(DE3), purified (Ni-NTA, SEC); not shown: GB1, N-terminal, kept
T3 chain: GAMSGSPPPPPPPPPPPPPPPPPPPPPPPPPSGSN

[4] = biological target: T4, GB1-SF3A1 C-ter Pro (residues 552-683) (UniProt Q15459 552-683); assay: ITC; MicroCal PEAQ-ITC, 25 °C, 20 mM sodium phosphate pH 6.5, 100 mM NaCl; GB1-tagged SF1/SF3A1 constructs in the syringe, WW12 in the cell (N sites <1: more than one WW tandem on one construct); one-site model; apparent
T4 construct: pET24 vector with 6xHis, GB1 and TEV site as N-terminal cassette, not cleaved; source: E. coli BL21(DE3), purified (Ni-NTA, SEC); not shown: GB1, N-terminal, kept
T4 sequence (looked up): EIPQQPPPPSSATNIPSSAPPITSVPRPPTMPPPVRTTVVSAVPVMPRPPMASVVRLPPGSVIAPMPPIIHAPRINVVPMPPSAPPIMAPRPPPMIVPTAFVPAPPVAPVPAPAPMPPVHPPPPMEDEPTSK

[5] = biological target: T5, GB1-SF1 Pro BCD (residues 468-639) (UniProt Q15637 468-639); assay: as above
T5 construct: SF1 (splicing factor 1) residues 468-639; pET24 vector with 6xHis, GB1 and TEV site as N-terminal cassette, not cleaved; source: E. coli BL21(DE3), purified (Ni-NTA, SEC); not shown: GB1, N-terminal, kept
T5 sequence (looked up): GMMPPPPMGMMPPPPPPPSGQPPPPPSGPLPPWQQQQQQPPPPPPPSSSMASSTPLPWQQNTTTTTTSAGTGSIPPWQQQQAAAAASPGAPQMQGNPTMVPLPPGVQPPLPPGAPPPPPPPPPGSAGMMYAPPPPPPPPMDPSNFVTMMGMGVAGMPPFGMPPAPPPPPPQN

[6] = biological target: T6, GB1-SF1 Pro CD (residues 539-639) (UniProt Q15637 539-639); assay: as above
T6 construct: SF1 (splicing factor 1) residues 539-639; pET24 vector with 6xHis, GB1 and TEV site as N-terminal cassette, not cleaved; source: E. coli BL21(DE3), purified (Ni-NTA, SEC); not shown: GB1, N-terminal, kept
T6 sequence (looked up): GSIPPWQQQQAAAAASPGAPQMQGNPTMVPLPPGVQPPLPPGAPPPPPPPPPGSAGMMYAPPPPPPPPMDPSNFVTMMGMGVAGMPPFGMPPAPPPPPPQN

[7] = biological target: T7, GB1-SF1 Pro BC (residues 468-594) (UniProt Q15637 468-594); assay: as above
T7 construct: SF1 (splicing factor 1) residues 468-594; pET24 vector with 6xHis, GB1 and TEV site as N-terminal cassette, not cleaved; source: E. coli BL21(DE3), purified (Ni-NTA, SEC); not shown: GB1, N-terminal, kept
T7 sequence (looked up): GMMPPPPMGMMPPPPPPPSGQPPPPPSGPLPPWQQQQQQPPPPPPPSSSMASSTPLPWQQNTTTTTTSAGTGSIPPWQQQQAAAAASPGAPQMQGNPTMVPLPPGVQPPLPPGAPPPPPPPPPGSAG

[8] = biological target: T8, GB1-SF1 Pro ABCD (residues 410-639) (UniProt Q15637 410-639); assay: as above
T8 construct: SF1 (splicing factor 1) residues 410-639, the complete proline-rich C-terminal region; pET24 vector with 6xHis, GB1 and TEV site as N-terminal cassette, not cleaved; also called complete C-terminal region of SF1; source: E. coli BL21(DE3), purified (Ni-NTA, SEC); not shown: GB1, N-terminal, kept
T8 sequence (looked up): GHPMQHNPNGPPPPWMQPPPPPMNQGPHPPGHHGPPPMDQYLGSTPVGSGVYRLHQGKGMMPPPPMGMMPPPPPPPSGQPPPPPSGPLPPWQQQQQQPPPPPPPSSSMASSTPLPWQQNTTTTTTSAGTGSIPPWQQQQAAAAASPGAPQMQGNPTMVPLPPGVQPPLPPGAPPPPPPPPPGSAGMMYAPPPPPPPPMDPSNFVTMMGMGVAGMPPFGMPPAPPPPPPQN

[9] = biological target: T9, PRPF40A N-ext-WW12 mutant (PPVP and PALPP motifs changed to alanine residues) (human, UniProt O75400 56-236, 78-81 PPVP to AAAA | 123-127 PALPP to AAAAA); assay: ITC; MicroCal PEAQ-ITC, 25 °C, 20 mM sodium phosphate pH 6.5, 100 mM NaCl; PRPF40A constructs and GB1-tagged SF1 16-mer peptides; who was in the syringe is not stated for these panels (Fig. 2B, Fig. 5C); one-site model
T9 construct: PRPF40A isoform 1, residues 56-236, with the two motifs PPVP (78-81) and PALPP (123-127) changed to alanine residues; made by site-directed mutagenesis of N-ext-WW12; also called Nter Ext WW12 MUTANT; mutated version of the N-extWW12; source: E. coli BL21(DE3), purified (Ni-NTA, TEV cleavage, reverse Ni-NTA, SEC); not shown: His6, N-terminal, cleaved
T9 sequence (looked up): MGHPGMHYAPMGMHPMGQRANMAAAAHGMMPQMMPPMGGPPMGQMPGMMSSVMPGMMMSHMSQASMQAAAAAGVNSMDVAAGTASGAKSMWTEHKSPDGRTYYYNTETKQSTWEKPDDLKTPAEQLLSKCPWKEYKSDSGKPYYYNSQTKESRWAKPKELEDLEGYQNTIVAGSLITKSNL

[10] = biological target: T10, PRPF40A N-ext-WW12 (residues 56-236) (human, UniProt O75400 56-236); assay: as above
T10 construct: PRPF40A isoform 1, residues 56-236: N-terminal proline-rich region and both WW domains; pETM11 vector; also called Nter Ext WW12; N-terminal extended WW12 construct; source: E. coli BL21(DE3), purified (Ni-NTA, TEV cleavage, reverse Ni-NTA, SEC); not shown: His6, N-terminal, cleaved
T10 sequence (looked up): T9 sequence (looked up) with A23P, A24P, A25V, A26P, A68P, A70L, A71P, A72P

stoichiometry N [1]: 1.41 and 1.37 and 1.39
stoichiometry N [2]: 2.38 and 2.56 and 2.47
stoichiometry N [3]: 2.21 and 2.39 and 2.3
Kd [4]: 23.8 µM and 14.8 µM and 19.3 µM
Kd [5]: 2.93 µM and 4.36 µM and 3.65 µM
Kd [6]: 2.83 µM and 4.32 µM and 4.26 µM and 3.8 µM
Kd [7]: 3.63 µM and 7.76 µM and 9.11 µM and 6.83 µM
Kd [8]: 5.41 µM and 4.4 µM and 4.91 µM
B1: PRPF40A WW12 (tandem WW domains, residues 141-236) (domain or fragment, human, UniProt O75400 141-236, looked up)
chain: GAKSMWTEHKSPDGRTYYYNTETKQSTWEKPDDLKTPAEQLLSKCPWKEYKSDSGKPYYYNSQTKESRWAKPKELEDLEGYQNTIVAGSLITKSNL
notes: pETM11 vector (NcoI/KpnI); also called PRPF40A WW tandem; isolated WW domains; source: E. coli BL21(DE3), purified (Ni-NTA, TEV cleavage, reverse Ni-NTA, SEC); not shown: His6, N-terminal, cleaved

Kd [9]: 2.44 µM and 1.98 µM and 2.21 µM
Kd [10]: 9.19 µM and 8.22 µM and 8.71 µM
B2: GB1-SF1(575-590) 16-mer peptide, SF1 PRPF40A WW binding site (peptide)
chain: GAMSGSPPLPPGAPPPPPPPPPSGSN
notes: common N-terminal residues after the TEV site (TEVsite-GAMSGS-peptide-SGSN); SF1 (splicing factor 1) residues 575-590; common C-terminal residues; pET24 vector with 6xHis, GB1 and TEV site as N-terminal cassette, not cleaved for ITC; also called SF1_(WWbs); SF1 WWbs; source: E. coli BL21(DE3), purified (Ni-NTA, SEC); not shown: GB1, N-terminal, kept
